In patent CN115073591A (INST MILITARY MEDICINE ACADEMY MILITARY SCIENCES PLA, dated 2022):

Target: T1, 人hCD2(His标签)蛋白 (human, UniProt P06729 25-209)
T1 construct: not shown: His tag
T1 sequence: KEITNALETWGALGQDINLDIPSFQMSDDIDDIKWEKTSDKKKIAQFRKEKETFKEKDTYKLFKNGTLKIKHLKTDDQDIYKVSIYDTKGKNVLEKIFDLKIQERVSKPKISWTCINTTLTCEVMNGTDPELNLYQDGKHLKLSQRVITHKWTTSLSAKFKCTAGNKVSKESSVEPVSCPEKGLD
Test: ELISA, plate coated with hCD2-His at 2 μg/mL

B1: 单克隆抗体8G1 (antibody, V domains shown)
VH: EVLLVESGGGLVKPGGSLKLSCAASGFTFSSYAMSWVRQTPEKRLEWVATITNGGSYNYYPDSVKGRFTISRDNAKNTLYLQMSSLRSEDTAIYYCARSNPYYFDYWGQGTTLTVSP
VL: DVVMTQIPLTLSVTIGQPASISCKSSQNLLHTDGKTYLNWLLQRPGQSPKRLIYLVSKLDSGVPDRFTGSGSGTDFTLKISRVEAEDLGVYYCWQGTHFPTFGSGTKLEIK
binding result: no binding (tested: 0.1μg/mL 8G1)
